Data on 17 molecules can be found in US20230068663A1 (University of Texas, published 2023).

Positions count from the first letter of the chain named.

To fix the notation:
B1: B2-14 (antibody, V domains shown)
VH: QVQLVQSGAEVKKPGSSVKVSCKASGGTFSSYAISWVRQAPGQGLEWMGGIIPIFGTANYAQKFQGRVTITADESTSTAYMELSSLRSEDTAVYYCARASMVETYFDYWGQGTMVTVSS
VL: QSVLTQPRSVSGSPGQSVTISCTGTSSDVGGYNYVSWYQQHPGKAPKLMISEVSKRPSGVPDRFSGSKSGNTASLTVSGLQAEDEADYYCSSYAGGYTPYVFGTGTKVTVL
notes: also called B2-14_HC; B2-14_LC
B2: B2-30 (antibody, human IgG1, V domains shown)
VH: QVQLVESGGGLVQPGGSLRLSCAASGFTFSSYDMHWVRQATGKGLEWVSAIGTAGDTYYPGSVKGRFTISRENAKNSLYLQMNSLRAGDTAVYYCARAKEYCSGGSCQDAFDIWGQGTMVSVSS
VL: QSPSSLSASVGDRVTITCRASQSIRTYLNWYQQKPGKDPELLIYAATSLQSGVPSRFTGSGSGTDFTLTISSLQPEDFATYYCQQSYSAPVFTFGQGTKLEIK
notes: also called B2-30_HC; B2-30_LC
B3: B2-23 (antibody, V domains shown)
VH: QVQLVQSGAEVKKPGASVKVSCKASGYTFTHSYIHWVRQAPGQGLEWMGVINPVGGSTTYAQRFQGRVTMTRDTSTSTVYMELSSLRSEDTAVYYCARAGGDGYNPYFDYWGQGTLVTVSS
VL: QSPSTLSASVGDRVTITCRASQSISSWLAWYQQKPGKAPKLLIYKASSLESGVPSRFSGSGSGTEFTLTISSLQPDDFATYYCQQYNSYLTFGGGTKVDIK
notes: also called B2-23_HC; B2-23_LC
B4: B2-9 (antibody, human IgG1, V domains shown)
VH: QVQLVQSGAEVKKPGASVKVSCKASGYTFTSYGISWVRQAPGQGLEWMGWISAYNGNTNYAQKLQGRVTMTTDTSTSTAYMELRSLRSDDTAVYYCARDGYGMDVWGQGTTVTVSS
VL: QSPSSLSASVGDRVTITCRTSHTVNSYLNWYQQEPGKAPKLLIYAASNLQSGVPSRFSGSGSGTDFSLTIHNLQPEDFATYYCQQSYRTPLTFGQGTKVDIK
notes: also called B2-9_HC; B2-9_LC
B5: B2-22 (antibody, V domains shown)
VH: B4 VH with D99V, Y101S, G102Y, M103G, V105Y, T111L
VL: QSPSSLSASVGDRVTITCRASQGISNYLAWYQQKPGKVPKLLIYAASTLQSGVPSRFSGSGSGTDFTLTISSLQPEDVATYYCQKYNSAPLTFGGGTKLEIK
notes: also called B2-22_HC; B2-22_LC
B6: B2-2 (antibody, V domains shown)
VH: QVQLVQSGAEVKKPGASVKVSCKASGYTFSDYGFSWVRQAPGQGLEWMGWISGYNGNTNYAQKFQGRVTMTIDASTSTAYMELRSLKSDDTAVYYCARLLLGYYGMDVWGQGTTVTVSS
VL: DIVMTQSPSSLSASVGDRVTLTCRASQSIGNYLNWYQQKPGKAPNLLIYAASSLQSGVPSRFSGSGSGTDFTLTISSLQPEDFATYYCQQSFSIPPITFGQGTRLEIK
notes: also called B2-2_HC; B2-2_LC
B7: B2-26 (antibody, V domains shown)
VH: QVQLVQSGAEVKKPGASVKVSCKASGYTFTSYGISWVRQAPGQGLEWMGWISAYNGNTNYAQKLQGRVTMTTDTSTSTAYMELRSLRSDDTAVYYCARDRGGWFDPWGQGTLVIVSS
VL: QSPSSLSASVGDRVTITCRASQSISNFVNWYQQKPGEVPKLLIYGASSLQSGVPSRFSGSGSGTDFTLTISSLQPEDFATYYCQQGYSVPLTFGGGTTVDIK
notes: also called B2-26_HC; B2-26_LC
B8: B2-4 (antibody, V domains shown)
VH: QVQLVQSGPTVRKPGASVRVSCKASGYPFTSNGMSWVRQAPGQGLEWMGWISTNSGNTNYAQKFQGRVTLTTDTSSTTTYLDLRSLTSDDTAIYYCARDVQYRMDVWGQGTTVTVSS
VL: QSVLTQPPSASGTPGQRVTISCSGSRSNIGSNPVNWYQHLPGTAPKLLVYSNNRRPSGVPDRFSGSKSGTSASLSISGLQSEDEGVYYCAAWDDNVHGVFGGGTKVTVL
notes: also called B2-4_HC; B2-4_LC
B9: B2-3 (antibody, V domains shown)
VH: QVQLVQSGAEVKKPGASVKVSCRTSGYTFSSYGISWVRQAPGQGLEWMGWISGNTGNTKYTPKLQGRVTMTTDTSTSTAYMELRSLRSDDTAVYYCARDRGIAAGRAFDIWGQGTMVTVSS
VL: QPVLTQPPSASGTPGQRVTISCSGSSSNIGTNPVNWYQQVPGTGPKLLIYNNNQWPSGVPDRFSGSKSATSASLAIYGLQSGDEAHYYCSSWDDSLSAWVFGGGTKVTVL
notes: also called B2-3_HC; B2-3_LC
B10: B2-13 (antibody, V domains shown)
VH: B1 VH with A99S, S100D, M101Y, V102G, E103D, T104S, M114L, T116S
VL: QAVVTQPASVSGSPGQSVSISCTGTSSDVGGFNYVSWYQQHPGKAPKLMIYDVSNRPSGVSNRFSGSKSGNTASLTISGLQAEDEADYYCSSYTSSTAPYVFGTGTKVTVL
notes: also called B2-13_HC; B2-13_LC
B11: B2-27 (antibody, human IgG1, V domains shown)
VH: B1 VH with A99E, M101Y, V102S, E103S, T104S, Y105S, M114T, T116S
VL: B10 VL with A2P, V4L, V18I, S19T, F32Y, T72S, T97S, A98T
notes: also called B2-27_HC; B2-27_LC
B12: B2-11 (antibody, V domains shown)
VH: QVQLQQSGPGLVKPSQTLSLTCAISGDSVSSNSAAWNWIRQSPSRGLEWLGRTYYRSKWYNDYAVSVKSRITINPDTSKNQFSLQLNSVTPEDTAVYYCARQDESAADDAFDIWGQGTLVIVSS
VL: QSVLTQPPSASGTPGQRVTISCSGSKSNVGNNFVHWYQQLPGTAPKLLLYSNLERSSGVPERFSGSKSGTSAYLAISGLRSDDEADYYCAAWDDSLPGWVFGGGTKLTVL
notes: also called B2-11_HC; B2-11_LC
B13: B2-1 (antibody, V domains shown)
VH: EVQLVQSGAEVKKPGSSVKVSCKASGGTFSSYAISWVRQAPGQGLEWMGGIIPIFGTANYAQKFQGRVTITADKSTSTAYMELSSLRSEDTAVYYCARGNQGDTAFDIWGQGTTVIVSS
VL: B10 VL with A2S, V3A, V4L, T5N, V18I, S19T, F32Y, T97S, A98T
notes: also called B2-1_HC; B2-1_LC
B14: HCB2-1c (antibody, V domains shown)
VH: EVQLVQSGAEVKKPGASVKVACKASGYTFTDYYIHWVRQAPGQGLEWMGIVNANGGDTNYAQQFQGRVTMTRDTSTSTVYLELTSLRSDDTAVYYCARDWYYYSSGSFPFDYWGQGTLVSVSS
VL: AIQMTQSPSSLSASVGDRVSITCRASQSISSFLNWYQQRPGKAPELLIYGASSLQSGVPSRFSGSGSGTDFTLTISSLQPEDFATYYCQQSYSIPITFGQGTQLEIK
B15: HCB2-1d (antibody, V domains shown)
VH: B14 VH
VL: DVQMTQSPSSLSASVGDRVSITCKASQDVSIAVAWYQQKPGKAPKLLIYSASYRYTGVPDRFSGSGSGTDFTLTISSLQPEDFAVYYCQQHYITPLTFGAGTKLEIK
B16: HCB2-2 (antibody, V domains shown)
VH: QVQLVQSGAEVKKPGASVKVSCKASGYIFNTYGISWVRQAPGQGLEWMGWTNVYNSNTDSGHKFQGRVTMTTDTSTDTAYMELRSLRSDDTAVYYCARDPGSAIFDMWGQGTMVTVSS
VL: B14 VL with A1D, I2V, Q103R
notes: also called HCB2-2_HC; HCB2-2_LC
B17: HCB2-4 (antibody, V domains shown)
VH: QVELQESGPGLVKPSETLSLTCTVSGDAIKDKYWSWVRQPPGKGLEWIGYISNSGSTNYNPSLKSRVSLSVDTSKNQFSLKQTSVTAADTATYYCARGSGYTAFDIWGQGTMVTVSS
VL: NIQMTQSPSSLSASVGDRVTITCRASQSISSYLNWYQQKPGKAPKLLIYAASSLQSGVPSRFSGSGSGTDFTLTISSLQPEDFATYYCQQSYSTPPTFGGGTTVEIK
notes: also called HCB2-4_HC; HCB2-4_LC

The first assay concerns the target T1, LILRB2-His antigen (UniProt Q8N423 22-460, limits assumed).
T1 construct: Coated on ELISA plates; also used for phage panning; also called LILRB2 antigen; not shown: His tag
The assay is described as follows: indirect ELISA, coated LILRB2-His. As to the method: ELISA binding EC of LILRB2 antibodies. The ELISA binding EC₅₀ of these 24 antibodies were measured by indirect ELISA. […] After incubation, HRP-conjugated goat anti-human Fc secondary antibody was incubated with the plates. The TMB substrate was added for color development and measurement of absorbance at 450 nm.
In turn, B1 had a concentration for a half-maximal effect (EC50) of 1.97 nM. That is a single-digit nanomolar value. The same measure, in the same setting: with B2 the figure was 1.19 nM. With B3, a half-maximal response (EC50) required 2.44 nM. The same measure, in the same setting: under B4 stands 0.608 nM. The same measure, in the same setting: under B5 stands 0.348 nM; under B6, 1.6 nM.

For the molecule B7, the EC50 was determined as 1.02 nM. As to B8, the 50% effective concentration (EC50) is 1.76 nM. The same measure, in the same setting: under B9 stands 0.787 nM; under B10, 5.15 nM; under B11, 379 nM. The same measure, in the same setting: with B12 the figure was 3.79 nM.

The target in the next assay is T2, LILRB2 chimeric receptor on LILRB2 reporter cells (extracellular domain of LILRB2 fused with … (UniProt Q8N423 22-460)).
T2 construct: extracellular domain;domain: transmembrane/intracellular domains; associates with DAP12; also called LILRB2-expressing reporter cells
The assay is described as follows: flow cytometry, LILRB2 reporter cells. An excerpt: FIGS. 1A-C. Screening specific monoclonal antibodies for LILRB2. […] Binding of monoclonal antibodies was screened using flow cytometer on LILRB2 reporter cells. Bound antibodies were detected with Allophycocyanin (APC)-labeled goat anti-human IgG secondary antibody. (FIG. 1B) Quantification of binding ability of monoclonal antibodies to LILRB2 reporter cells.
Screening specific monoclonal antibodies for LILRB2. The inventors employed a stable reporter cell system to detect the binding ability of selected monoclonal antibodies to LILRB2. In this chimeric receptor reporter system, the extracellular domain (ECD) of LILRB2 is fused with transmembrane/intracellular domains of PILRb that associates with the adaptor protein DAP12 containing an immunoreceptor tyrosine-based activation motif. 27 monoclonal antibodies were screened. The LILRB2 reporter cells were incubated with selected monoclonal antibody, then labeled with (APC) goat anti-human IgG secondary antibody. […] The inventors generated LILRBAs and LILRBs reporters stably transduced with each receptor's extracellular domain (ECD).
(In general: A flow cytometer gives signals particle by particle.)
With B1, the “% of cells anti-hIgG APC+” value was 3.74%. Same read-out and setting: under B2 stands 4.92%; under B3, 0.47%; under B4, 0.09%. Take B5: the “% of cells anti-hIgG APC+” value is 0.19%. Turning to B6, the “% of cells anti-hIgG APC+” value came out at 0.14%.

Regarding B7, the “% of cells anti-hIgG APC+” value stood at 0.12%. On the same count and under the same terms, with B8 the figure was 0.7%; with B9, 0.58%.

B13: the “% of cells anti-hIgG APC+” value came out at 1.69%. Regarding B10, the “% of cells anti-hIgG APC+” value amounted to 1.23%.

As to B11, the “% of cells anti-hIgG APC+” value amounted to 1.1%. As for B12, the “% of cells anti-hIgG APC+” value amounted to 0.28%.

The next assay concerns the target T3, full extracellular domain (ECD) of LILRB2 fused to Fc fragment of mouse IgG2a (human; mouse, UniProt Q8N423 22-460).
T3 construct: extracellular domain; also called B2-ECD; wildtype B2-ECD; not shown: Fc fragment of mouse IgG2a
As to the kind of experiment: ELISA, coated human LILRB2 ECD-mIgG2a Fc [panel A]. An excerpt: FIGS. 19A-B. ELISA binding measurement of antibodies to human and non-human primate (cynomolgus monkey, cyno) LILRB2 recombinantly produced in HEK293 cells. (FIG. 19A) ELISA binding to human LILRB2. (FIG. 19B) ELISA binding to cyno-LILRB2. The fusion proteins of the extracellular domain (ECD) of human LILRB2 or NHP-LILRB2 with Fe of mouse IgG2a were used to coat ELISA plates and antibodies were titrated in different concentrations as indicated in the graph.
In general terms: ELISA stands for enzyme-linked immunosorbent assay.
Turning to B14, the binding result was “binds”. Same read-out and setting: under B15 stands “binds”; under B16, “binds”; under B17, “binds”.

One may read the EC50 as the concentration at which the effect is half-maximal. A low value points to greater potency.
